In PMC6778621:
pKd: −log10 of the molar value.

How the values were obtained:
[1] = biological target: MET-ECD-Fc-His V370D (human) (UniProt P08581); test: SPR
[2] = biological target: MET-ECD-Fc-His (WT) (human) (UniProt P08581); test: SPR

- pKd [1]: 6.04
- pKd [2]: 6.07
Substance: SP domain of HGF (β-chain) (domain or fragment)
